Bridges are numbered along the chain shown (N, C = ends). Where no end group is shown, it is not given here. [ ]: non-standard residue; d: D form. Sec = N[C@@H](C[SeH])C(=O)O
B1: d[C1,6U]-OT-OH (peptide)
peptide: XYIQNXPLG
modifications: by its name: desaminoselenocysteine (3-selenopropanoic acid) at position 1, L-selenocysteine at position 6, diselenide bridge; free C-terminal carboxylic acid; structure is not given
B2: [C1,6U]-OT-OH (peptide)
peptide: XYIQNXPLG
modifications: L-selenocysteine at positions 1 and 6, diselenide bridge; free C-terminal carboxylic acid
notes: also called [Se-Se]-OT-OH

Columns and labels:
[1] = target: T1, human vasopressin V1a receptor (human, UniProt P37288 1-418); assay: cell-based or functional assay
T1 sequence (P37288 whole entry): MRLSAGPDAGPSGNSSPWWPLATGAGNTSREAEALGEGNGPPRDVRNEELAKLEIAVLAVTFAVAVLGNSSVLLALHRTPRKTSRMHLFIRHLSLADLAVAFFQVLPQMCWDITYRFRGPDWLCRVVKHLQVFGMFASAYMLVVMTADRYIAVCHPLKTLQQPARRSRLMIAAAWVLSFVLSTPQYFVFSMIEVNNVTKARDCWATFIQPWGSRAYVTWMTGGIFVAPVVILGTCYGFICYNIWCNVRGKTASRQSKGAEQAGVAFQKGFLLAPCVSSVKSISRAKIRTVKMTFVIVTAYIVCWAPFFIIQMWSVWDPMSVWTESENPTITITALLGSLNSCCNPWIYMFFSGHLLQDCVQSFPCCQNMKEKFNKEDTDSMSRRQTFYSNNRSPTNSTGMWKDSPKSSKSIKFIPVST

human oxytocin receptor [2] = target: T2, human oxytocin receptor (human, UniProt P30559 1-389); assay: cell-based or functional assay
T2 sequence (looked up): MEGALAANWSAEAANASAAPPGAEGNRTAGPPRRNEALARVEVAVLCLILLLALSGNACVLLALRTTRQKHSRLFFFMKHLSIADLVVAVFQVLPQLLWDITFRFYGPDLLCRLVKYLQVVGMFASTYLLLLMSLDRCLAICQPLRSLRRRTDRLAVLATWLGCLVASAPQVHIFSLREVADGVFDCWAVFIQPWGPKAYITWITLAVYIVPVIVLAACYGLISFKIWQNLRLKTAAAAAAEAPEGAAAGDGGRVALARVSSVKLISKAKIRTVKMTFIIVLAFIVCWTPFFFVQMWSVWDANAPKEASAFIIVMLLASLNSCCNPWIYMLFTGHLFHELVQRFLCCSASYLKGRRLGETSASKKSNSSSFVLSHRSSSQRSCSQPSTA

[3] = target: T1, human vasopressin V1a receptor; assay: cell-based or functional assay; remark: listed apart in the source
human oxytocin receptor [4] = target: T2, human oxytocin receptor; assay: cell-based or functional assay; remark: listed apart in the source
[5] = target: T3, human vasopressin V1b receptor (human, UniProt P47901 1-424); assay: cell-based or functional assay
T3 sequence (looked up): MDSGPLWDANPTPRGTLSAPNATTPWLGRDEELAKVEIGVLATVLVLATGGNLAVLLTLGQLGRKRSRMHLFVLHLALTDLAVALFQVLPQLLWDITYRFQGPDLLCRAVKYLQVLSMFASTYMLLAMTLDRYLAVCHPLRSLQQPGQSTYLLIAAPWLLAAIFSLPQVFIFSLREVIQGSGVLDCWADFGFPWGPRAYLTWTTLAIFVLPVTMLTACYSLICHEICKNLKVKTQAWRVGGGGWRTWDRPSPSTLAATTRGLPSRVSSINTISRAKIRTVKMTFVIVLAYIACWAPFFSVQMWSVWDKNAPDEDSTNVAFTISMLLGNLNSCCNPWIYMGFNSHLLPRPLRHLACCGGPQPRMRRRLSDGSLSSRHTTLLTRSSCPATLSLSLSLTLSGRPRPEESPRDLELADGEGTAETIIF

[6] = target: T3, human vasopressin V1b receptor; assay: cell-based or functional assay; remark: listed apart in the source
[7] = target: human vasopressin V2 receptor (human, UniProt P30518 1-371); assay: cell-based or functional assay
human oxytocin receptor [8] = target: T2, human oxytocin receptor; assay: radioligand displacement (3H-OT), SPA beads, COS-1 membranes

Binder | Emax, IP-One HTRF assay [1] [%] | Emax, IP-One HTRF assay (human oxytocin receptor [2]) [%] | Emax, FLIPR calcium assay [3] [%] | Emax, FLIPR calcium assay (human oxytocin receptor [4]) [%] | Emax, FLIPR calcium assay [5] [%] | Emax, IP-One HTRF assay [6] [%] | Emax, cAMP accumulation assay [7] [%] | EC50, FLIPR calcium assay [3] [nM] | EC50, IP-One HTRF assay [1] [nM] | EC50, cAMP accumulation assay [7] [nM] | IC50 (human oxytocin receptor [8]) [nM]
[Sec]YIQNCPLG-NH2 (bridge 1-6 via selenosulfide) [[C1U]-OT] | 96 | 84 | 90 | 85 | 82 | – | – | – | – | – | –
B1 | – | 71 | – | 49 | 58 | 63 | 135 | > 100000 | – | – | –
B2 | – | 60 | – | 38 | – | – | 114 | > 100000 | > 100000 | 495 | 1280
CYIQN[Sec]PLG-NH2 (bridge 1-6; also: selenosulfide bond) [[C6U]-OT] | 67 | 55 | 104 | 82 | 73 | – | – | – | – | – | –
CYIQNCPLX (C-terminal amide; Cys1 and Cys6 form the cyclic part (disulfide)) [Oxytocin] | 79 | – | 71 | – | – | – | – | – | – | – | –
CYIQNCPLG-OH (disulfide 1-6) [[S-S]-OT-OH] | 77 | – | – | – | – | – | – | – | – | – | –

— patent publication US20130130985A1 (published 2013)
